The target of test [1] is IL-11R-Fc. Kind of test: competition ELISA on IL-11R-Fc. (An ELISA detects its analyte on a solid surface through an enzyme-linked reagent.)
Test [2] deals with IL-11R-Fc. Briefly: IL-11R binding ELISA.
Test [3] concerns the target T1, murine IL-11R on Ba/F3 cells stably transfected with murine IL-11R/gp130 (murine, UniProt Q64385 24-432).
T1 sequence (looked up): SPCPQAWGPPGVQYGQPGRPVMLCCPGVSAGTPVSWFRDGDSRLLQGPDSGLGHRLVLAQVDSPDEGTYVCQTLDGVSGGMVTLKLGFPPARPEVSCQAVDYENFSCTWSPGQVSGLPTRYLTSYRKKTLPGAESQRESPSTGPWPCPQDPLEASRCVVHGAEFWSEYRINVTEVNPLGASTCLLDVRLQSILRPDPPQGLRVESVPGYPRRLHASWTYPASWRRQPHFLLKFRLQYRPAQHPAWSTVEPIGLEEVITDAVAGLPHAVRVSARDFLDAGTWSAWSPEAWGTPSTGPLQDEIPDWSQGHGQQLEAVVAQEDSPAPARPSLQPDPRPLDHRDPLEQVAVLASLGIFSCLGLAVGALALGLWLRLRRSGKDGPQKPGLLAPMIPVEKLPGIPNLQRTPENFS
Kind of test: cell-based or functional assay.

This is an account of results in patent publication US20090202533A1 (CSL, published 2009).

In the case of “IL-11 mutein of SEQ ID NO: 1 (AMSAG at positions 58-62 of mature murine IL-11 replaced with PAIDY, tryptophan at position 147 replaced with alanine), N-terminal His-tagged (from UniProt P47873 22-199) (ligand)”, in test [1], the fold higher binding affinity than murine W147A IL-11 worked out at 20 fold.

B1: PEGylated mutein (mutein of SEQ ID NO: 3 with a single 40 kDa PEG moiety on the Cys introduced at position 147) (ligand)
chain: VSSDPRADLDSAVLLTRSLLADTRQLAAQMRDKFPADGDHSLDSLPTLPAIDYTLGSLQLPGVLTRLRVDLMSYLRHVQWLRRAGGPSLKTLEPELGALQARLERLLRRLQLLMSRLALPQAAPDQPVIPLGPPASACGSIRAAHAILGGLHLTLDWAVRGLLLLKTRL
modifications: mPEG2-maleimide (single 40 kDa PEG moiety) on the Cys introduced at position 147 (position as printed, numbering of mature murine IL-11)
For the molecule B1, the fold reduction of binding affinity relative to non-PEGylated mutein in test [2] came out at 5 fold. For the same molecule, in test [3], the “ability to antagonize IL-11-induced Ba/F3 cell proliferation, relative to non-PEGylated mutein” value was roughly 10 fold.
